Columns and labels:
His-Cdc42 = His-Cdc42 (UniProt P60953)
His-Cdc42, sequence (P60953 whole entry, looked up): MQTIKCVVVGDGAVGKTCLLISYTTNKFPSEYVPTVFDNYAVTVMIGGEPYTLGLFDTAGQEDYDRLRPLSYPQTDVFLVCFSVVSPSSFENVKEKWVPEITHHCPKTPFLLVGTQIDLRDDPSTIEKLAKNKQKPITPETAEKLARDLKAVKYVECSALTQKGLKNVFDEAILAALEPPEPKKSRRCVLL

Demetalated bovine SOD1, sequence (chain, as listed by the source): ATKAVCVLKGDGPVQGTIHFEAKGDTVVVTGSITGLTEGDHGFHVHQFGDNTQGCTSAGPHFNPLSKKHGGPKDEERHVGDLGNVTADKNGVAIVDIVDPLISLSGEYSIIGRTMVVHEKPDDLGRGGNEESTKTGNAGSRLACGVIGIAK
Bovine copper/zinc superoxide dismutase (SOD1), native, sequence (chain, as listed by the source): as above

| Substance | Cdc42 GTPase assay (rate of 32Pi release from γP32-GTP) (His-Cdc42) | Rac1 GTPase assay (rate of 32Pi release from γP32-GTP) (Histidine-tagged Rac1) |
| --- | --- | --- |
| Bovine copper/zinc superoxide dismutase (SOD1), native | The ability of SOD1 to inhibit GTP hydrolysis was also specific for Rac1 and was not observed with the closely related small GTPase Cdc42 |  |
| Demetalated bovine SOD1 |  | also did not inhibit Rac1 GTPase activity (FIG. 6B) |

— patent US20070265350
